Patent US10705101B2, “Determination of the unbound free fatty acid profiles in biological and industrial specimens” (priority 2013, dated 2020)

B1: L9BP6 H3: acrylodan-labeled mutant FABP probe: L38Y, F62W, L72A, Y117A (protein, UniProt P02693 2-132, looked up, variant L38Y F62W L72A Y117A)
Fatty acid-binding protein, …: AFDGTWKVDRNENYEKFMEKMGINVVKRKLGAHDNLKYTITQEGNKFTVKESSNFRNIDVVWELGVDFAYSAADGTELTGTWTMEGNKLVGKFKRVDNGKELIAVREISGNELIQTATYEGVEAKRIFKKE
modifications: acrylodan label
notes: acrylodan-labeled mutant FABP probe: L38Y, F62W, L72A, Y117A
B2: L10P7 A4: acrylodan-labeled mutant FABP probe: Y14L, M18L, G31Y, A73L, Y117A (protein, UniProt P02693 2-132, looked up, variant Y14L M18L G31Y A73L Y117A)
Fatty acid-binding protein, …: AFDGTWKVDRNENLEKFLEKMGINVVKRKLYAHDNLKLTITQEGNKFTVKESSNFRNIDVVFELGVDFAYSLLDGTELTGTWTMEGNKLVGKFKRVDNGKELIAVREISGNELIQTATYEGVEAKRIFKKE
modifications: acrylodan label
notes: acrylodan-labeled mutant FABP probe: Y14L, M18L, G31Y, A73L, Y117A
B3: L118P4 H5: acrylodan-labeled mutant FABP probe: Y14W, M18Q, K27C, L72A, D74Q, R106W (protein, UniProt P02693 2-132, looked up, variant Y14W M18Q K27C L72A D74Q R106W)
Fatty acid-binding protein, …: AFDGTWKVDRNENWEKFQEKMGINVVCRKLGAHDNLKLTITQEGNKFTVKESSNFRNIDVVFELGVDFAYSAAQGTELTGTWTMEGNKLVGKFKRVDNGKELIAVWEISGNELIQTYTYEGVEAKRIFKKE
modifications: acrylodan label
notes: acrylodan-labeled mutant FABP probe: Y14W, M18Q, K27C, L72A, D74Q, R106W
B4: L76P9 E4: acrylodan-labeled mutant FABP probe: Y14L, M18Y, I23T, K27L, L30C, G31I, L72G, A73I, D74A, L78V, W82P, G91S, F93M, A104F, R106L, Y117L, Q115A (protein, UniProt P02693 2-132, looked up, variant Y14L M18Y I23T K27L L30C G31I L72G A73I D74A L78V W82P G91S F93M A104F R106L Y117L Q115A)
Fatty acid-binding protein, …: AFDGTWKVDRNENLEKFYEKMGTNVVLRKCIAHDNLKLTITQEGNKFTVKESSNFRNIDVVFELGVDFAYSGIAGTEVTGTPTMEGNKLVSKMKRVDNGKELIFVLEISGNELIATLTYEGVEAKRIFKKE
modifications: acrylodan label
notes: acrylodan-labeled mutant FABP probe: Y14L, M18Y, I23T, K27L, L30C, G31I, L72G, A73I, D74A, L78V, W82P, G91S, F93M, A104F, R106L, Y117L, Q115A
B5: L33P3 F9: acrylodan-labeled mutant FABP probe: M18L, I23L, G31N, L72W, A73T, D74A, R106A, Q115E, Y117V (protein, UniProt P02693 2-132, looked up, variant M18L I23L G31N L72W A73T D74A R106A Q115E Y117V)
Fatty acid-binding protein, …: AFDGTWKVDRNENYEKFLEKMGLNVVKRKLNAHDNLKLTITQEGNKFTVKESSNFRNIDVVFELGVDFAYSWTAGTELTGTWTMEGNKLVGKFKRVDNGKELIAVAEISGNELIETVTYEGVEAKRIFKKE
modifications: acrylodan label
notes: acrylodan-labeled mutant FABP probe: M18L, I23L, G31N, L72W, A73T, D74A, R106A, Q115E, Y117V
B6: L50BP9 D5: acrylodan-labeled mutant FABP probe: M18L, M21F, I23L, K27C, G31N, L72S, A73T, D74A, T76I, Y117N (protein, UniProt P02693 2-132, looked up, variant M18L M21F I23L K27C G31N L72S A73T D74A T76I Y117N)
Fatty acid-binding protein, …: AFDGTWKVDRNENYEKFLEKFGLNVVCRKLNAHDNLKLTITQEGNKFTVKESSNFRNIDVVFELGVDFAYSSTAGIELTGTWTMEGNKLVGKFKRVDNGKELIAVREISGNELIQTNTYEGVEAKRIFKKE
modifications: acrylodan label
notes: acrylodan-labeled mutant FABP probe: M18L, M21F, I23L, K27C, G31N, L72S, A73T, D74A, T76I, Y117N
B7: L44P1 C10: acrylodan-labeled mutant FABP probe: Y14L, M18L, I23L, G31N, L72G, A73T, D74A, R106W, Q115W, Y117L (protein, UniProt P02693 2-132, looked up, variant Y14L M18L I23L G31N L72G A73T D74A R106W Q115W Y117L)
Fatty acid-binding protein, …: AFDGTWKVDRNENLEKFLEKMGLNVVKRKLNAHDNLKLTITQEGNKFTVKESSNFRNIDVVFELGVDFAYSGTAGTELTGTWTMEGNKLVGKFKRVDNGKELIAVWEISGNELIWTLTYEGVEAKRIFKKE
modifications: acrylodan label
notes: acrylodan-labeled mutant FABP probe: Y14L, M18L, I23L, G31N, L72G, A73T, D74A, R106W, Q115W, Y117L
B8: L50BP4 E2: acrylodan-labeled mutant FABP probe: M18L, M21F, I23F, K27C, G31N, L72T, A73T, D74A, T76F (protein, UniProt P02693 2-132, looked up, variant M18L M21F I23F K27C G31N L72T A73T D74A T76F)
Fatty acid-binding protein, …: AFDGTWKVDRNENYEKFLEKFGFNVVCRKLNAHDNLKLTITQEGNKFTVKESSNFRNIDVVFELGVDFAYSTTAGFELTGTWTMEGNKLVGKFKRVDNGKELIAVREISGNELIQTYTYEGVEAKRIFKKE
modifications: acrylodan label
notes: acrylodan-labeled mutant FABP probe: M18L, M21F, I23F, K27C, G31N, L72T, A73T, D74A, T76F
B9: L128P18 A7: acrylodan-labeled mutant FABP probe: Y14W, M18L, M21I, I23L, K27C, G31G, L38V, S71M, L72W, A73T, D74P, A104I, R106A, Q115E, Y117V (protein, UniProt P02693 2-132, looked up, variant Y14W M18L M21I I23L K27C G31G L38V S71M L72W A73T D74P A104I R106A Q115E Y117V)
Fatty acid-binding protein, …: AFDGTWKVDRNENWEKFLEKIGLNVVCRKLGAHDNLKVTITQEGNKFTVKESSNFRNIDVVFELGVDFAYMWTPGTELTGTWTMEGNKLVGKFKRVDNGKELIIVAEISGNELIETVTYEGVEAKRIFKKE
modifications: acrylodan label
notes: acrylodan-labeled mutant FABP probe: Y14W, M18L, M21I, I23L, K27C, G31G, L38V, S71M, L72W, A73T, D74P, A104I, R106A, Q115E, Y117V
B10: L35P10C4: acrylodan-labeled mutant FABP probe: M18L, G31N, L36Y, L72W, A73T, D74A, R106A, Q115E, Y117V (protein, UniProt P02693 2-132, looked up, variant M18L G31N L36Y L72W A73T D74A R106A Q115E Y117V)
Fatty acid-binding protein, …: AFDGTWKVDRNENYEKFLEKMGINVVKRKLNAHDNYKLTITQEGNKFTVKESSNFRNIDVVFELGVDFAYSWTAGTELTGTWTMEGNKLVGKFKRVDNGKELIAVAEISGNELIETVTYEGVEAKRIFKKE
modifications: acrylodan label
notes: acrylodan-labeled mutant FABP probe: M18L, G31N, L36Y, L72W, A73T, D74A, R106A, Q115E, Y117V
B11: L36P15 B7-1: acrylodan-labeled mutant FABP probe: M18L, I23V, G31N, F55R, L72W, A73T, D74A, R106A, Q115E, Y117V (protein, UniProt P02693 2-132, looked up, variant M18L I23V G31N F55R L72W A73T D74A R106A Q115E Y117V)
Fatty acid-binding protein, …: AFDGTWKVDRNENYEKFLEKMGVNVVKRKLNAHDNLKLTITQEGNKFTVKESSNRRNIDVVFELGVDFAYSWTAGTELTGTWTMEGNKLVGKFKRVDNGKELIAVAEISGNELIETVTYEGVEAKRIFKKE
modifications: acrylodan label
notes: acrylodan-labeled mutant FABP probe: M18L, I23V, G31N, F55R, L72W, A73T, D74A, R106A, Q115E, Y117V
B12: L37P1 C3: acrylodan-labeled mutant FABP probe: Y14W, M18L, M21I, I23L, G31N, L38V, L72W, A73T, D74A, R106A, Q115E, Y117V (protein, UniProt P02693 2-132, looked up, variant Y14W M18L M21I I23L G31N L38V L72W A73T D74A R106A Q115E Y117V)
Fatty acid-binding protein, …: AFDGTWKVDRNENWEKFLEKIGLNVVKRKLNAHDNLKVTITQEGNKFTVKESSNFRNIDVVFELGVDFAYSWTAGTELTGTWTMEGNKLVGKFKRVDNGKELIAVAEISGNELIETVTYEGVEAKRIFKKE
modifications: acrylodan label
notes: acrylodan-labeled mutant FABP probe: Y14W, M18L, M21I, I23L, G31N, L38V, L72W, A73T, D74A, R106A, Q115E, Y117V
B13: L35P22E8: acrylodan-labeled mutant FABP probe: M18L, I23L, G31N, L36R, L38V, L72W, A73T, D74A, R106A, Q115E, Y117V (protein, UniProt P02693 2-132, looked up, variant M18L I23L G31N L36R L38V L72W A73T D74A R106A Q115E Y117V)
Fatty acid-binding protein, …: AFDGTWKVDRNENYEKFLEKMGLNVVKRKLNAHDNRKVTITQEGNKFTVKESSNFRNIDVVFELGVDFAYSWTAGTELTGTWTMEGNKLVGKFKRVDNGKELIAVAEISGNELIETVTYEGVEAKRIFKKE
modifications: acrylodan label
notes: acrylodan-labeled mutant FABP probe: M18L, I23L, G31N, L36R, L38V, L72W, A73T, D74A, R106A, Q115E, Y117V

Experiment: Probe response profile / specificity for different FFAu at 1 nM
Type: binding
Conditions: FFAu giving the largest response to 1 nM of each FFAu; several listed in order of degree of specificity
Excerpt: The abbreviations are: arachidonate (AA), docosahexaenoate (DHA), eicosapentaenoate (EPA), laurate (LAU), linoleate (LA), linolenate (LNA), myristate (MA), oleate (OA), palmitate (PA), palmitoleate (POA), stearate (SA), and vaccenate (VA).
Examples of probes used, generally in groups of 10 or more, to determine FFAu profiles in biological samples such as blood plasma or serum from animals and humans or media from microorganisms are shown in Table 2. In the sequences presented in Table 2 and the sequence listing, amino acids are numbered from the first residue of the mature protein. The initiator methionine residue of the wild-type protein is removed by aminopeptidase activity, leaving an alanine as residue 1. Thus, counting backwards and skipping 0, the initiator methionine is at residue position −1. Specificity indicates the FFAu that gives the largest response to 1 nM of each FFAu when one FFAu dominates the profile and more than one when there is a more even distribution of specificity. Where more than one is indicated they are listed in order of degree of specificity. The abbreviations are: arachidonate (AA), docosahexaenoate (DHA), eicosapentaenoate (EPA), laurate (LAU), linoleate (LA), linolenate (LNA), myristate (MA), oleate (OA), palmitate (PA), palmitoleate (POA), stearate (SA), and vacsinate (VA). The sequences indicate mutations relative to SEQ ID NO: 1. This sequence is a mutated rat intestinal fatty acid binding protein with a Glu 131 to Asp substitution and includes a COOH-terminal affininity tag comprising […], Gly 133 and 6 histidines.
The response profile is the fluorescence change as evaluated as (R−Ro)/Ro (ΔR/Ro) for each FFAu added as a complex of the FFA and albumin so that the FFAu concentration is clamped or buffered at 1 nM for every FFAu for which a calibration has been performed. The calculation is performed simply by rearranging equation 2 to solve for ΔR/Ro. […] However all the probes have different profiles and therefore complementary specificities for different FFAu. Abbreviations are as in Table 2.
In the case of B1, the Specificity is reported as “SA/OA/PA”.
In the case of B2, the Specificity is reported as “AA/DHA/OA/EPA/LA”.
In the case of B3, the Specificity is reported as “DHA”.
With B4 the Specificity was “OA/VA/SA/LA”.
In the case of B5, the Specificity is reported as “DHA/AA”.
With B6 the Specificity was “PA/POA/MA”.
For B7, the Specificity was “PA/OA/SA”.
In the case of B8, the Specificity is reported as “PA/MA”.
In the case of B9, the Specificity is reported as “DHA/AA”.
In the case of B10, the Specificity is reported as “DHA/AA”.
For B11, the Specificity was “HA/AA/EPA”.
With B12 the Specificity was “AA/DHA/EPA”.
With B13 the Specificity was “DHA/AA”.
